The data set has as its target T1, METTL16-His6 (full length) (Homo sapiens, UniProt Q86W50).
T1 sequence: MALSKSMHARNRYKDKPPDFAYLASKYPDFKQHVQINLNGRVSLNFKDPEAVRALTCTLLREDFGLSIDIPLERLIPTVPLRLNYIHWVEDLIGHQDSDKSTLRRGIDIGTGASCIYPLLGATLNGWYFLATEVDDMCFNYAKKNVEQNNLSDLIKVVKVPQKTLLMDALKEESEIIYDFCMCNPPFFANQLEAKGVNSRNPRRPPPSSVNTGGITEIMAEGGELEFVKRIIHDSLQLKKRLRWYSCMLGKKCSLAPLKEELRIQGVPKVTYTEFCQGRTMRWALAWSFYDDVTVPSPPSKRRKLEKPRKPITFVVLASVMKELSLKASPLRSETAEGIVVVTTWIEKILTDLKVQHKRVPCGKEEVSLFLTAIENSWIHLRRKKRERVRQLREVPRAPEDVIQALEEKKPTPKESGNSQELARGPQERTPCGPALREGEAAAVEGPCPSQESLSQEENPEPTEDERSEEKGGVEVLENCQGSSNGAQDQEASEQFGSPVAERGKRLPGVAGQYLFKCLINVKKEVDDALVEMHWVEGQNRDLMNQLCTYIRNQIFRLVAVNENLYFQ
Nature of the data set: MST.

Drawing on publication PMC9850920, this text covers Kd for one molecule.

B1: MALAT1 triple helix (structured_RNA)
RNA: GGAAGGUUUUUCUUUUCCUGAGAAAACAACACGUAUUGUUUUCUCAGGUUUUGCUUUUUGGCCUUUUUCUAGCUUAAAAAAAAAAAAAGCAAAA
As for B1, the Kd (commonly a measure of binding affinity in units of concentration) worked out at 31 ± 3 nM.
